A word on the Kd: it is a measure of binding affinity in units of concentration.

Experiment [1] concerns the target T1, recombinant human Her2 ECD (Human Her2/ErbB2 protein, catalog #10004-HCCH, Sino Biological Inc.) (human, UniProt P04626 23-652).
T1 construct: extracellular domain; also called HER2 antigen; HER2 target
As to the kind of experiment: SPR (Biacore), conditions of Example 1, human Her2 ECD immobilized on CM5 chip. (In general: SPR reads the build-up and loss of mass on a sensor chip optically.)

The target in experiment [2] is T1, recombinant human Her2 ECD (Human …). The experiment is described as follows: SPR (Biacore), conditions of Example 1, HER2 ECD immobilized on CM5 chip.
Experiment [3] has the same target. As to the kind of experiment: SPR (Biacore T200), HER2 ECD immobilised on CM5, anti-HER2/CD3 TDB as analyte.

B1: 4D5v3-40G5 anti-HER2/CD3 TDB (bispecific antibody, V domains shown)
VH 1: not shown
VL 1: not shown
VH 2: EVQLVQSGAEVKKPGASVKVSCKASGYTFTNYYIHWVRQAPGQGLEWIGWIYPGDGNTKYNEKFKGRATLTADTSTSTAYLELSSLRSEDTAVYYCARDSYSNYYFDYWGQGTLVTVSS
VL 2: DIVMTQSPDSLAVSLGERATINCKSSQSLLNSRTRKNYLAWYQQKPGQPPKLLIYWASTRESGVPDRFSGSGSGTDFTLTISSLQAEDVAVYYCTQSFILRTFGQGTKVEIK
notes: also called HER2 TDB
As for B1, the equilibrium dissociation constant (Kd) amounted to 40 pM in experiment [1] and 60 pM in experiment [2]. Besides, the “fold affinity relative to wildtype 4D5 TDB” value in experiment [3] was roughly 10 fold.
